Paper PMC6238601, “Specificity for deubiquitination of monoubiquitinated FANCD2 is driven by the N-terminus of USP1” (Life Science Alliance, 2018)
Positions count from the first letter of the chain named. Names may count otherwise.

B1: USP1^ΔNΔ1Δ2 (Δ1–54, Δ229–408, Δ608–737), Sf21-expressed (domain or fragment, human, UniProt O94782 55-785, looked up)
chain: SEIDQVVPAAQSSPINCEKRENLLPFVGLNNLGNTCYLNSILQVLYFCPGFKSGVKHLFNIISRKKEALKDEANQKDKGNCKEDSLASYELICSLQSLIISVEQLQASFLLNPEKYTDELATQPRRLLNTLRELNPMYEGYLQHDAQEVLQCILGNIQETCQLLKKEEVKNVAENEVKPINKGEEQIGFELVEKLFQGQLVLRTRCLECESLTERREDFQDISVPVQEDELSKVEESSEISPEPKTEMKTLRWAISQFASVERIVGEDKYFCENCHHYTEAERSLLFDKMPEVITIHLKCFAASGLEFDCYGGGLSKINTPLLTPLKLSLEEWSTKPTNDSYGLFAVVMHSGITISSGHYTASVKVTDLNSLEQSLKEYEGKWLLFDDSEVKVTEEKDFLNSLSPSTSPTSTPYLLFYKKL
notes: USP1, human; N-terminus (Δ1–54), Insertion 1 (Δ229–408) and Insertion 2 (Δ608–737) deleted in the full-length background; the G670A/G671A site lies in the deleted Insertion 2; also called minimal USP1 catalytic domain; catalytic domain of USP1; source: Sf21 (baculovirus), purified (Ni-NTA, anion exchange, SEC)
B2: USP1^ΔNΔ1Δ2–UAF1 complex (Strep-tagged UAF1) (complex)
chain 1: B1 chain
chain 2: not shown
notes: USP1, human; Δ1–54, Δ229–408, Δ608–737; as m9; UAF1, human; as m7; Bait complex formed beforehand and held on MagStrep beads; source: E. coli USP1^ΔNΔ1Δ2 complexed with Sf21 Strep-UAF1, both purified; not shown: Strep11, N-terminal, kept
B3: USP1^ΔNΔ1Δ2 (Δ1–54, Δ229–408, Δ608–737), E. coli-expressed (domain or fragment, human, UniProt O94782 55-785, looked up)
chain: B1 chain
notes: USP1, human; Δ1–54, Δ229–408, Δ608–737; also called E. coli–expressed USP1^ΔNΔ1Δ2; source: E. coli BL21, purified (GSH resin, SEC)
B4: USP1^Δ1Δ2-R22K–UAF1 complex (Strep-tagged UAF1) (complex)
chain 1: MPGVIPSESNGLSRGSPSKKNKLSLKFFQKKETKRALDFTDSQENEEKASEYRASEIDQVVPAAQSSPINCEKRENLLPFVGLNNLGNTCYLNSILQVLYFCPGFKSGVKHLFNIISRKKEALKDEANQKDKGNCKEDSLASYELICSLQSLIISVEQLQASFLLNPEKYTDELATQPRRLLNTLRELNPMYEGYLQHDAQEVLQCILGNIQETCQLLKKEEVKNVAENEVKPINKGEEQIGFELVEKLFQGQLVLRTRCLECESLTERREDFQDISVPVQEDELSKVEESSEISPEPKTEMKTLRWAISQFASVERIVGEDKYFCENCHHYTEAERSLLFDKMPEVITIHLKCFAASGLEFDCYGGGLSKINTPLLTPLKLSLEEWSTKPTNDSYGLFAVVMHSGITISSGHYTASVKVTDLNSLEQSLKEYEGKWLLFDDSEVKVTEEKDFLNSLSPSTSPTSTPYLLFYKKL
chain 2: not shown
notes: USP1, human; Δ229–408, Δ608–737, R22K; as m11; UAF1, human; as m7; source: E. coli USP1^Δ1Δ2-R22K complexed with Sf21 Strep-UAF1, both purified; not shown: Strep11, N-terminal, kept
B5: USP1^Δ1Δ2-L25A–UAF1 complex (Strep-tagged UAF1) (complex)
chain 1: B4 chain 1 with K22R, L25A
chain 2: not shown
notes: USP1, human; Δ229–408, Δ608–737, L25A; as m12; UAF1, human; as m7; source: E. coli USP1^Δ1Δ2-L25A complexed with Sf21 Strep-UAF1, both purified; not shown: Strep11, N-terminal, kept
B6: USP1^Δ1Δ2–UAF1 complex (Strep-tagged UAF1) (complex)
chain 1: B4 chain 1 with K22R
chain 2: not shown
notes: USP1, human; Δ229–408, Δ608–737; as m8; UAF1, human; as m7; Bait complex formed beforehand and held on MagStrep beads; also called UAF1–USP1; USP1–UAF1; source: E. coli USP1^Δ1Δ2 complexed with Sf21 Strep-UAF1, both purified; not shown: Strep11, N-terminal, kept
B7: USP1^Δ1Δ2 (Δ229–408, Δ608–737), E. coli-expressed (enzyme, human, UniProt O94782 1-785, looked up)
chain: B4 chain 1 with K22R
notes: USP1, human; Insertion 1 (Δ229–408) and Insertion 2 (Δ608–737) deleted; gene synthesised and optimised for E. coli; GST-3C tag from pGEX6P; a few residues of the 3C site may be left after cleavage (surmise); also called E. coli–expressed USP1^Δ1Δ2; source: E. coli BL21, purified (GSH resin, SEC)
B8: USP1^Δ1Δ2-L25A, E. coli-expressed (enzyme, human, UniProt O94782 1-785, looked up)
chain: B4 chain 1 with K22R, L25A
notes: USP1, human; Δ229–408, Δ608–737, L25A (one of the alanine point mutants of the N-terminus); source: E. coli BL21, purified (GSH resin, SEC)
B9: USP1^Δ1Δ2-R22A, E. coli-expressed (enzyme, human, UniProt O94782 1-785, looked up)
chain: B4 chain 1 with K22A
notes: USP1, human; Δ229–408, Δ608–737, R22A; source: E. coli BL21, purified (GSH resin, SEC)
B10: USP1^Δ1Δ2-R22K, E. coli-expressed (enzyme, human, UniProt O94782 1-785, looked up)
chain: B4 chain 1
notes: USP1, human; Δ229–408, Δ608–737, R22K; source: E. coli BL21, purified (GSH resin, SEC)

Tests used:
Settings in all cases: both partners purified
[1] = molecular target: T1, UAF1 (USP1-associated factor 1) (human, UniProt Q8TAF3 1-677); test: SEC; USP1 and UAF1 alone or together at 15 μM, 15 min on ice; SD200 Increase (10/300); 20 mM Tris pH 8.0, 150 mM NaCl, 5% glycerol, 5 mM DTT; fractions on SDS-PAGE, Coomassie
T1 construct: UAF1 (USP1-associated factor 1), human; N-terminal His-3C tag; the methods say tags were removed except from FANCD2, FANCI, USP2 and GST-ubiquitin; source: Sf21 (baculovirus), purified (Ni-NTA, anion exchange, SEC); not shown: His, N-terminal, cleaved

[2] = molecular target: T2, human PCNA-K164Ub (hsPCNA-Ub) (human | , UniProt P12004 1-261; P0CG48 1-76, K164 monoubiquitinated (isopeptide bond to ubiquitin) | C-terminus linked to K164 of PCNA); test: pull-down; N-terminal Strep-tagged UAF1 complexed with E. coli USP1, 10 μg bound to MagStrep beads and washed; 10 μg recombinant substrate, 1 h on ice; 50 mM Tris pH 7.5, 120 mM NaCl, 5% glycerol, 1 mM DTT, 0.01% Triton X-100, 0.01% ovalbumin; SDS-PAGE; beads without USP1–UAF1 as control
T2 construct: PCNA, human; ubiquitin; Covalent conjugate; also called monoubiquitinated PCNA

[3] = molecular target: T3, UAF1 with an N-terminal Strep tag (human, UniProt Q8TAF3 1-677); test: as above
T3 construct: UAF1 (USP1-associated factor 1), human; Strep11 tag and linker GGSGGS were added N-terminal of the His-3C tag; as the Strep tag is used for capture, the His-3C stretch was probably kept too (surmise); also called Strep-tagged UAF1; N-terminal Strep-tagged UAF1; source: Sf21 (baculovirus), purified; not shown: Strep11, N-terminal, kept

[4] = molecular target: T4, human FANCD2 (hsFANCD2), non-ubiquitinated (human, UniProt Q9BXW9 1-1451); test: as above
T4 construct: FANCD2 (Fanconi anemia group D2 protein), human, full length; gene synthesised and optimised for Spodoptera frugiperda; His-3C tag; tags were not removed from FANCD2; also called Fanconi anemia group D2 protein; source: Sf21 (baculovirus), purified (Ni-NTA, anion exchange, SEC)

| Binder | binding result [3] | also measured |
| --- | --- | --- |
| B1 | – | binding result [1]: binds |
| B2 | – | binding result [2]: binds |
| B3 | binds | – |
| B4 | – | binding result [4]: binds |
| B5 | – | binding result [4]: binds |
| B6 | – | binding result [2]: binds |
| B7 | binds | – |
| B8 | binds | – |
| B9 | binds | – |
| B10 | binds | – |
